Experimental findings from the supplement of paper PMC7125110 are described below.

± gives the standard error. This sample holds only a part of the variants without activity. A value given as a limit tells only on which side of the number the result lay.

B1: glmS ribozyme (parent)
chain: AUAAAAGCGCCAGAACUACAGAAAUGUAGUUGACGAGGAGGAGGUUUAUCGAAUUUUCGGCGGAUGCCUCCAAA

Common to all, as to settings: with glucosamine-6-phosphate
Variants of B1 are the subject of series [1]. Kind of series: self-cleavage kobs at 640 uM GlcN6P; higher = faster cleavage; RNA array. In outline:
(§1)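 Barcoded ribozyme variants, transcribed in situ by E. coli RNA polymerase on sequenced MiSeq chips, were followed via a hybridised Cy3 probe at 37 °C. Glucosamine-6-phosphate ranged from 40 μM to 10 mM in HEPES/KCl/Mg(OAc)2 buffer. kobs came from decay fits to per-tile medians, and kcat and KM from weighted Michaelis–Menten fits.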

In series [2] the parent is B1. Kind of series: self-cleavage kobs at 2500 uM GlcN6P; higher = faster cleavage; RNA array. In outline:
as §1

The variants in series [3] derive from B1. Kind of series: self-cleavage kobs at 10000 uM GlcN6P; higher = faster cleavage; RNA array. In outline: as §1

On to A15U G40U U55A U56A, for which, in the series with glucosamine-6-phosphate [1], the “self-cleavage kobs at 640 uM GlcN6P” value came out at 5.38e-05 ± 1.6e-05 s⁻¹. G7A A39U A48C: the “self-cleavage kobs at 640 uM GlcN6P” value in the series with glucosamine-6-phosphate [1] is below 1e-05 s⁻¹. Besides, the “self-cleavage kobs at 2500 uM GlcN6P” value in the series with glucosamine-6-phosphate [2] is below 1e-05 s⁻¹. In the case of U46A A52C C61U, the “self-cleavage kobs at 640 uM GlcN6P” value in the series with glucosamine-6-phosphate [1] is below 1e-05 s⁻¹. Also, in the series with glucosamine-6-phosphate [2], the “self-cleavage kobs at 2500 uM GlcN6P” value is below 1e-05 s⁻¹. As to A39U G41U A42U, in the series with glucosamine-6-phosphate [1], the “self-cleavage kobs at 640 uM GlcN6P” value came to 5.35e-05 ± 1.4e-05 s⁻¹. Besides, the “self-cleavage kobs at 2500 uM GlcN6P” value with glucosamine-6-phosphate [2] was determined as 0.000135 ± 2.2e-05 s⁻¹. In the case of G32U G62A C67A, in the series with glucosamine-6-phosphate [1], the “self-cleavage kobs at 640 uM GlcN6P” value was below 1e-05 s⁻¹. As for C8U G9C C50A G51U G60U, in the series with glucosamine-6-phosphate [1], the “self-cleavage kobs at 640 uM GlcN6P” value is below 1e-05 s⁻¹. Consider A12C A14U C16G G35C G62U, for which the “self-cleavage kobs at 640 uM GlcN6P” value with glucosamine-6-phosphate [1] is below 1e-05 s⁻¹.

Regarding G13C G37U A39U, the “self-cleavage kobs at 640 uM GlcN6P” value with glucosamine-6-phosphate [1] is below 1e-05 s⁻¹. Also, in the series with glucosamine-6-phosphate [2], the “self-cleavage kobs at 2500 uM GlcN6P” value was below 1e-05 s⁻¹. Turning to A53U U56A C71U, the “self-cleavage kobs at 640 uM GlcN6P” value in the series with glucosamine-6-phosphate [1] was 0.00121 ± 0.00015 s⁻¹. Moreover, the “self-cleavage kobs at 2500 uM GlcN6P” value with glucosamine-6-phosphate [2] came out at 0.00323 ± 0.00064 s⁻¹.

As to A6U A12U G13U U47A C70U, the “self-cleavage kobs at 640 uM GlcN6P” value with glucosamine-6-phosphate [1] was below 1e-05 s⁻¹. On to A52C G62A G63C, for which the “self-cleavage kobs at 640 uM GlcN6P” value in the series with glucosamine-6-phosphate [1] is below 1e-05 s⁻¹. Turning to A33U C50G G51A, the “self-cleavage kobs at 640 uM GlcN6P” value with glucosamine-6-phosphate [1] is below 1e-05 s⁻¹. Take U31A A42U G59U: the “self-cleavage kobs at 640 uM GlcN6P” value with glucosamine-6-phosphate [1] was below 1e-05 s⁻¹. For A33C G66C C68G C70A, the “self-cleavage kobs at 640 uM GlcN6P” value with glucosamine-6-phosphate [1] is below 1e-05 s⁻¹. Regarding A15C G29C G35A C50A, in the series with glucosamine-6-phosphate [1], the “self-cleavage kobs at 640 uM GlcN6P” value is below 1e-05 s⁻¹. Besides, the “self-cleavage kobs at 2500 uM GlcN6P” value with glucosamine-6-phosphate [2] was below 1e-05 s⁻¹. In the case of C19A G44U, in the series with glucosamine-6-phosphate [1], the “self-cleavage kobs at 640 uM GlcN6P” value was 2.94e-05 ± 1.3e-05 s⁻¹. Moreover, the “self-cleavage kobs at 2500 uM GlcN6P” value with glucosamine-6-phosphate [2] worked out at 0.000114 ± 2.7e-05 s⁻¹. The matching figures for U47C U55C: 0.00134 ± 0.00031 s⁻¹ and 0.0023 ± 0.00064 s⁻¹.

With G60U G63U C70A, the “self-cleavage kobs at 640 uM GlcN6P” value with glucosamine-6-phosphate [1] was below 1e-05 s⁻¹.

Consider A6C A39G U57G, for which the “self-cleavage kobs at 640 uM GlcN6P” value with glucosamine-6-phosphate [1] was below 1e-05 s⁻¹. Also, the “self-cleavage kobs at 2500 uM GlcN6P” value with glucosamine-6-phosphate [2] was below 1e-05 s⁻¹. Take C34U G51A U57G U69G: in the series with glucosamine-6-phosphate [1], the “self-cleavage kobs at 640 uM GlcN6P” value worked out at 0.000271 ± 9.8e-05 s⁻¹. In addition, in the series with glucosamine-6-phosphate [3], the “self-cleavage kobs at 10000 uM GlcN6P” value is 0.000296 ± 7.8e-05 s⁻¹. As to C16A G51U C67G, the “self-cleavage kobs at 640 uM GlcN6P” value in the series with glucosamine-6-phosphate [1] came out at 0.000109 ± 4.2e-05 s⁻¹. As for G13A A48U U54C, the “self-cleavage kobs at 640 uM GlcN6P” value with glucosamine-6-phosphate [1] is below 1e-05 s⁻¹. In the case of U31C U46C, in the series with glucosamine-6-phosphate [1], the “self-cleavage kobs at 640 uM GlcN6P” value was 7.34e-05 ± 2.3e-05 s⁻¹. For the same variant, the “self-cleavage kobs at 2500 uM GlcN6P” value in the series with glucosamine-6-phosphate [2] was 0.000204 ± 3.7e-05 s⁻¹. Besides, in the series with glucosamine-6-phosphate [3], the “self-cleavage kobs at 10000 uM GlcN6P” value was 0.000295 ± 8e-05 s⁻¹.

Turning to A33U G44C G51A U56A, the “self-cleavage kobs at 640 uM GlcN6P” value with glucosamine-6-phosphate [1] is below 1e-05 s⁻¹. For the variant G9C C67G C68U, the “self-cleavage kobs at 640 uM GlcN6P” value with glucosamine-6-phosphate [1] is below 1e-05 s⁻¹. The “self-cleavage kobs at 2500 uM GlcN6P” value with glucosamine-6-phosphate [2] is below 1e-05 s⁻¹. With A33U G41A C58A U65G, in the series with glucosamine-6-phosphate [1], the “self-cleavage kobs at 640 uM GlcN6P” value was below 1e-05 s⁻¹. Further, the “self-cleavage kobs at 2500 uM GlcN6P” value with glucosamine-6-phosphate [2] is below 1e-05 s⁻¹. As to A6C C16U G38U U47C G63A, in the series with glucosamine-6-phosphate [1], the “self-cleavage kobs at 640 uM GlcN6P” value was below 1e-05 s⁻¹. Further, the “self-cleavage kobs at 2500 uM GlcN6P” value with glucosamine-6-phosphate [2] is below 1e-05 s⁻¹. With A15G G37U C58A C70A, in the series with glucosamine-6-phosphate [1], the “self-cleavage kobs at 640 uM GlcN6P” value is 6.04e-05 ± 1.8e-05 s⁻¹. As to C16U G37A U54C, in the series with glucosamine-6-phosphate [1], the “self-cleavage kobs at 640 uM GlcN6P” value amounted to 0.000373 ± 8.1e-05 s⁻¹. In addition, in the series with glucosamine-6-phosphate [2], the “self-cleavage kobs at 2500 uM GlcN6P” value was 0.000599 ± 0.00013 s⁻¹. In the series with glucosamine-6-phosphate [3], the “self-cleavage kobs at 10000 uM GlcN6P” value came to 0.00176 ± 0.00031 s⁻¹. Take C8G C11U G32U G59U: in the series with glucosamine-6-phosphate [1], the “self-cleavage kobs at 640 uM GlcN6P” value is below 1e-05 s⁻¹. In addition, the “self-cleavage kobs at 2500 uM GlcN6P” value with glucosamine-6-phosphate [2] is below 1e-05 s⁻¹. For the variant U46A U56C C68A, the “self-cleavage kobs at 640 uM GlcN6P” value with glucosamine-6-phosphate [1] is below 1e-05 s⁻¹. Besides, the “self-cleavage kobs at 2500 uM GlcN6P” value with glucosamine-6-phosphate [2] is below 1e-05 s⁻¹. As for G9A G38A A42G U69G C70U C71A, the “self-cleavage kobs at 640 uM GlcN6P” value in the series with glucosamine-6-phosphate [1] was below 1e-05 s⁻¹.

For A39C G51A A64G, in the series with glucosamine-6-phosphate [1], the “self-cleavage kobs at 640 uM GlcN6P” value is below 1e-05 s⁻¹. With A6G U46C U47A, the “self-cleavage kobs at 640 uM GlcN6P” value with glucosamine-6-phosphate [1] was below 1e-05 s⁻¹.
